In the experiment the target is β-arrestin-2 (UniProt P32121). Description: anti-HA co-IP after DSS cross-linking, anti-Flag blot. The following applies: reference: wild type C3aR.

For the substance “C3a receptor (C3aR) (from UniProt Q16581) MT2 (T463A/S465A/T466A/S470A)”, the other: percent decrease vs wild type (sites T463,S465,T466,S470) amounted to 74%.

Take “C3a receptor (C3aR) (from UniProt Q16581) MT7 (S459A plus MT1 and MT2 substitutions)”: the “binding against the reference” value (sites S459,T463,S465,T466,S470,S475,S479,T480,T481) is “lost”.

The values above are taken from paper PMC3471852.
